Test [1] deals with T1, Recombinant Human IL-1β (human, UniProt P01584 117-269).
T1 construct: also called IL-1b; IL-1B
The test is described as follows: direct bind ELISA, antigen coated on plate. The protocol: (§1) Enzyme Linked Immunosorbent Assays to screen for antibodies that bind a desired target antigen were performed as follows. High bind ELISA plates (Corning Costar #3369, Acton, Mass.) were coated with 100 μL/well of 10 μg/ml of desired target antigen (R&D Systems, Minneapolis, Minn.) or desired target antigen extra-cellular domain/FC fusion protein (R&D Systems, Minneapolis, Minn.) or monoclonal mouse anti-polyHistidine antibody (R&D Systems # MAB050, Minneapolis, Minn.) in phosphate buffered saline (10×PBS, Abbott Bioresearch Center, Media Prep# MPS-073, Worcester, Mass.) overnight at 4° C. Plates were washed four times with PBS containing 0.02% Tween 20. Plates were blocked by the addition of 300 μL/well blocking solution (non-fat dry milk powder, various retail suppliers, diluted to 2% in PBS) for ½ hour at room temperature. Plates were washed four times after blocking with PBS containing 0.02% Tween 20.
(§2) Plates were washed 4 times with PBS containing 0.02% Tween 20.
(§3) One hundred microliters of enhanced TMB solution (Neogen Corp. #308177, K Blue, Lexington, Ky.) was added to each well and incubated for 10 minutes at room temperature. The reaction was stopped by the addition of 50 μL 1N sulphuric acid.
A general note: An ELISA detects its analyte on a solid surface through an enzyme-linked reagent.

For test [2], the target named is T1, Recombinant Human IL-1β. The test can be described thus: BIACORE SPR, antibody captured, antigen in flow. The protocol:
(§4) The BIACORE assay (Biacore, Inc, Piscataway, N.J.) determines the affinity of antibodies or DVD-Ig with kinetic measurements of on-rate and off-rate constants. […] All chemicals are obtained from Biacore® AB (Uppsala, Sweden) or otherwise from a different source as described in the text. For example, approximately 5000 RU of goat anti-mouse IgG, (Fcγ), fragment specific polyclonal antibody (Pierce Biotechnology Inc, Rockford, Ill.) diluted in 10 mM sodium acetate (pH 4.5) is directly immobilized across a CM5 research grade biosensor chip using a standard amine coupling kit according to manufacturer's instructions and procedures at 25 μg/ml. Unreacted moieties on the biosensor surface are blocked with ethanolamine. Modified carboxymethyl dextran surface in flowcell 2 and 4 is used as a reaction surface. Unmodified carboxymethyl dextran without goat anti-mouse IgG in flow cell 1 and 3 is used as the reference surface. For kinetic analysis, rate equations derived from the 1:1 Langmuir binding model are fitted simultaneously to association and dissociation phases of all eight injections (using global fit analysis) with the use of Biaevaluation 4.0.1 software. Purified antibodies or DVD-Ig are diluted in HEPES-buffered saline for capture across goat anti-mouse IgG specific reaction surfaces. Antibodies or DVD-Ig to be captured as a ligand (25 μg/m) are injected over reaction matrices at a flow rate of 5 μl/min. The association and dissociation rate constants, kₒₙ (M⁻¹s⁻¹) and koff (s⁻¹) are determined under a continuous flow rate of 25 μl/min. Rate constants are derived by making kinetic binding measurements at different antigen concentrations ranging from 10-200 nM. The equilibrium dissociation constant (M) of the reaction between antibodies or DVD-Igs and the target antigen is then calculated from the kinetic rate constants by the following formula: KD=koff/kₒₙ. Binding is recorded as a function of time and kinetic rate constants are calculated.
Background: Surface plasmon resonance follows binding to a sensor surface in real time, without labels.

In test [3] the target is T2, Recombinant Human β-NGF (human, UniProt P01138 122-239, limits assumed). The test can be described thus: direct bind ELISA, antigen coated on plate. The protocol:
as §1, §2, §3

Test [4] has as its target T2, Recombinant Human β-NGF. The test is described as follows: BIACORE SPR, antibody captured, antigen in flow. The protocol:
as §4

The target of test [5] is T2, Recombinant Human β-NGF. The test is described as follows: BIACORE SPR, antibody captured, antigen in flow; Biacore, antibody captured, 25 C, HBS-EP. How it is done:
as §4, with “For kinetic analysis, rate equations derived from the 1:1 Langmuir binding model are fitted simultaneously to association and dissociation phases of all eight injections (using global fit analysis) with the use of Biaevaluation 4.0.1 software. Purified antibodies or DVD-Ig are diluted in HEPES-buffered saline for capture across goat anti-mouse IgG specific reaction surfaces. Antibodies or DVD-Ig to be captured as a ligand (25 μg/m) are injected over reaction matrices at a flow rate of 5 μl/min.” left out, “Rate constants are derived by making kinetic binding measurements at different antigen concentrations ranging from 10-200 nM.” left out

Test [6] addresses T2, Recombinant Human β-NGF. The test can be described thus: direct bind ELISA, antigen coated on plate (N-terminal VD). The protocol: as §1, §2, §3
The target of test [7] is T2, Recombinant Human β-NGF. The test can be described thus: BIACORE SPR, DVD-Ig captured, antigen in flow (N-terminal VD). How it is done: as §4
The target of test [8] is T3, Recombinant Human VEGF (human, UniProt P15692-4 27-191).
T3 construct: also called VEGF165
The test is described as follows: direct bind ELISA, antigen coated on plate (N-terminal VD). How it is done: as §1, §2, §3

In test [9] the target is T3, Recombinant Human VEGF. The test is described as follows: BIACORE SPR, DVD-Ig captured, antigen in flow (N-terminal VD). The protocol: as §4

T3 sequence (P15692 other isoform, or with tags, fused parts or gaps limits assumed): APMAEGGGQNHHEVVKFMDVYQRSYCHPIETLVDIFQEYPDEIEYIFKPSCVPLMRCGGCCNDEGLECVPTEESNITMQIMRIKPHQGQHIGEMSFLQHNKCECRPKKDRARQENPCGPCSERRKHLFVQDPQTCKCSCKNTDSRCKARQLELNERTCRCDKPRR
T2 sequence (P01138 122-239 limits assumed): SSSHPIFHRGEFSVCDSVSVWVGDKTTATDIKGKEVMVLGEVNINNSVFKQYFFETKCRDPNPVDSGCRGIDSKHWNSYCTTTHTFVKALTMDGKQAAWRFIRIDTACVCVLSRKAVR

B1: AB032 anti-IL-1b parent antibody (antibody, human IgG1, V domains shown)
VH: QVQLVESGGGVVQPGRSLRLSCAASGFTFSVYGMNWVRQAPGKGLEWVAIIWYDGDNQYYADSVKGRFTISRDNSKNTLYLQMNGLRAEDTAVYYCARDLRTGPFDYWGQGTLVTVSS
VL: EIVLTQSPDFQSVTPKEKVTITCRASQSIGSSLHWYQQKPDQSPKLLIKYASQSFSGVPSRFSGSGSGTDFTLTINSLEAEDAAAYYCHQSSSLPFTFGPGTKVDIKR
The EC50 is the concentration that produces a half-maximal response. By Kd is commonly meant the free concentration of one partner at which half of the binding sites on the other are occupied at equilibrium, for simple one-to-one binding. As to B1, in the test with Recombinant Human IL-1β [1], the EC50 was 5.27 nM. Also, in the test with Recombinant Human IL-1β [2], the Kd amounted to 0.0131 nM.

B2: AB020 anti-NGF parent antibody (antibody, human IgG1, V domains shown)
VH: QVQLQESGPGLVKPSETLSLTCTVSGFSLIGYDLNWIRQPPGKGLEWIGIIWGDGTTDYNSAVKSRVTISKDTSKNQFSLKLSSVTAADTAVYYCARGGYWYATSYYFDYWGQGTLVTVSS
VL: DIQMTQSPSSLSASVGDRVTITCRASQSISNNLNWYQQKPGKAPKLLIYYTSRFHSGVPSRFSGSGSGTDFTFTISSLQPEDIATYYCQQEHTLPYTFGQGTKLEIKR
What is called koff is a measure of how fast the partners let go of each other. In general, kon refers to the second-order rate constant of association. As to B2, the EC50 in the test with Recombinant Human β-NGF [3] came out at 2.59 nM. In the test with Recombinant Human β-NGF [4], the koff was 0.000112 s⁻¹ and the kon was determined as 261000 M⁻¹ s⁻¹. Besides, the Kd with Recombinant Human β-NGF [5] stood at 0.428 nM.

B3: DVD164 (NGF / PGE2 DVD-Ig) (bispecific antibody)
VH: QVQLQESGPGLVKPSETLSLTCTVSGFSLIGYDLNWIRQPPGKGLEWIGIIWGDGTTDYNSAVKSRVTISKDTSKNQFSLKLSSVTAADTAVYYCARGGYWYATSYYFDYWGQGTLVTVSSASTKGPEVQLVQSGAEVKKPGASVKVSCKASGYTFTKYWLGWVRQAPGQGLEWMGDIYPGYDYTHYNEKFKDRVTLTTDTSTSTAYMELRSLRSDDTAVYYCARSDGSSTYWGQGTLVTVSS
VL: DIQMTQSPSSLSASVGDRVTITCRASQSISNNLNWYQQKPGKAPKLLIYYTSRFHSGVPSRFSGSGSGTDFTFTISSLQPEDIATYYCQQEHTLPYTFGQGTKLEIKRTVAAPDVLMTQTPLSLPVTPGEPASISCTSSQNIVHSNGNTYLEWYLQKPGQSPQLLIYKVSNRFSGVPDRFSGSGSGTDFTLKISRVEAEDVGVYYCFQVSHVPYTFGGGTKVEIKR
notes: Outer domain is AB020 (NGF), inner domain is AB048 (PGE2); also called VD164H; VD164L
Regarding B3, the EC50 in the test with Recombinant Human β-NGF [6] turned out to be 1.21 nM. Further, in the test with Recombinant Human β-NGF [7], the Kd worked out at 0.248 nM, the koff came out at 0.000103 s⁻¹ and the kon came out at 414000 M⁻¹ s⁻¹.

B4: DVD162 (VEGF / PGE2 DVD-Ig) (bispecific antibody)
VH: EVQLVESGGGLVQPGGSLRLSCAASGYTFTNYGMNWVRQAPGKGLEWVGWINTYTGEPTYAADFKRRFTFSLDTSKSTAYLQMNSLRAEDTAVYYCAKYPHYYGSSHWYFDVWGQGTLVTVSSASTKGPEVQLVQSGAEVKKPGASVKVSCKASGYTFTKYWLGWVRQAPGQGLEWMGDIYPGYDYTHYNEKFKDRVTLTTDTSTSTAYMELRSLRSDDTAVYYCARSDGSSTYWGQGTLVTVSS
VL: DIQMTQSPSSLSASVGDRVTITCSASQDISNYLNWYQQKPGKAPKVLIYFTSSLHSGVPSRFSGSGSGTDFTLTISSLQPEDFATYYCQQYSTVPWTFGQGTKVEIKRTVAAPDVLMTQTPLSLPVTPGEPASISCTSSQNIVHSNGNTYLEWYLQKPGQSPQLLIYKVSNRFSGVPDRFSGSGSGTDFTLKISRVEAEDVGVYYCFQVSHVPYTFGGGTKVEIKR
notes: Outer domain is AB014 (VEGF), inner domain is AB048 (PGE2); also called VD162H; VD162L
Take B4: in the test with Recombinant Human VEGF [8], the EC50 worked out at 1.79 nM. Moreover, in the test with Recombinant Human VEGF [9], the Kd turned out to be 0.266 nM, the off-rate (koff) turned out to be 0.000131 s⁻¹ and the kon was determined as 490000 M⁻¹ s⁻¹.

Source of the values: patent US20150017095A1 (AbbVie / Abbott, published 2015).
